# Test results published in patent US20070254316.
# Key:
# [1] = tested on: T1, R4-C9 peptide (free peptide, CTLVPHTRC)
# T1 sequence: CTLVPHTRC
# [2] = tested on: T2, R5-XC1 peptide (free peptide, CQKHHNYLC)
# T2 sequence: CQKHHNYLC
substance,measurement,setting,value
"xPSM (extracellular portion of human PSMA, Tag-xPSM digested with enterokinase, no affinity tags)","NAALADase activity (hydrolysis of N-acetyl-L-aspartyl-L-[3,4-3H]glutamate by purified xPSM)",[1],"two selected PSMA binding peptides enhanced, rather than inhibited, enzyme activity in a dose dependant manner"
same,"NAALADase activity (hydrolysis of N-acetyl-L-aspartyl-L-[3,4-3H]glutamate by purified xPSM)",[2],"two selected PSMA binding peptides enhanced, rather than inhibited, enzyme activity in a dose dependant manner"
